The results in this text go back to article PMC2914249, “Structure and Reactivity of Bacillus subtilis MenD Catalyzing the First Committed Step in Menaquinone Biosynthesis” (Journal of Molecular Biology, 2010).

Residue numbers refer to the chain shown, from its start. In names and notes the source's numbering stands.

First the molecules themselves.
B1: BsMenD (MenD, SEPHCHC synthase, EC 2.2.1.9) (Bacillus subtilis subsp. subtilis str. 168; I489A) (protein)
chain: MTVNPITHYIGSFIDEFALSGITDAVVCPGSRSTPLAVLCAAHPDISVHVQIDERSAGFFALGLAKAKQRPVLLICTSGTAAANFYPAVVEAHYSRVPIIVLTADRPHELREVGAPQAINQHFLFGNFVKFFTDSALPEESPQMLRYIRTLASRAAGEAQKRPMGPVHVNVPLREPLMPDLSDEPFGRMRTGRHVSVKTGTQSVDRESLSDVAEMLAEAEKGMIVCGELHSDADKENIIALSKALQYPILADPLSNLRNGVHDKSTVIDAYDSFLKDDELKRKLRPDVVIRFGPMPVSKPVFLWLKDDPTIQQIVIDEDGGWRDPTQASAHMIHCNASVFAEEIMAGLTAATRSSEWLEKWQFVNGRFREHLQTISSEDVSFEGNLYRILQHLVPENSSLFVGNSMPIRDVDTFFEKQDRPFRIYSNRGANGIDGVVSSAMGVCEGTKAPVTLVIGDLSFYHDLNGLLAAKKLGIPLTVILVNNDGGGAFSFLPQASEKTHFEDLFGTPTGLDFKHAAALYGGTYSCPASWDEFKTAYAPQADKPGLHLIEIKTDRQSRVQLHRDMLNEAVREVKKQWEL
notes: full length (Thr2-Leu580 seen in crystal); N-terminal hexa-His tag with TEV site kept (24 extra residues); E. coli BL21(DE3); dimer peak used (tetramer in crystal); active site formed by two subunits
B2: BsMenD (MenD, SEPHCHC synthase, EC 2.2.1.9) (Bacillus subtilis subsp. subtilis str. 168; R32A) (protein)
chain: B1 chain with R32A, A489I
notes: as for B1
B3: BsMenD (MenD, SEPHCHC synthase, EC 2.2.1.9) (Bacillus subtilis subsp. subtilis str. 168; R106A) (protein)
chain: B1 chain with R106A, A489I
notes: as for B1
B4: BsMenD (MenD, SEPHCHC synthase, EC 2.2.1.9) (Bacillus subtilis subsp. subtilis str. 168) (protein)
chain: B1 chain with A489I
notes: as for B1
B5: BsMenD (MenD, SEPHCHC synthase, EC 2.2.1.9) (Bacillus subtilis subsp. subtilis str. 168; L493A) (protein)
chain: B1 chain with A489I, L493A
notes: as for B1
B6: BsMenD (MenD, SEPHCHC synthase, EC 2.2.1.9) (Bacillus subtilis subsp. subtilis str. 168; R409A) (protein)
chain: B1 chain with R409A, A489I
notes: as for B1
B7: BsMenD (MenD, SEPHCHC synthase, EC 2.2.1.9) (Bacillus subtilis subsp. subtilis str. 168; K299A) (protein)
chain: B1 chain with K299A, A489I
notes: as for B1
B8: BsMenD (MenD, SEPHCHC synthase, EC 2.2.1.9) (Bacillus subtilis subsp. subtilis str. 168; F490A) (protein)
chain: B1 chain with A489I, F490A
notes: as for B1
B9: BsMenD (MenD, SEPHCHC synthase, EC 2.2.1.9) (Bacillus subtilis subsp. subtilis str. 168; R428A) (protein)
chain: B1 chain with R428A, A489I
notes: as for B1

Substrate in the first data set: C=C(O[C@H]1C=CC=C(C(=O)O)[C@@H]1O)C(=O)O
Kind of data set: purified protein. The format is biochemical, Bacillus subtilis. Particulars: 50 mM Tris-HCl pH 7.8, 20 mM NaCl, 5 mM MgSO4, 23 °C, co-substrate α-ketoglutarate.
For orientation: Km means the concentration of substrate that gives half-maximal velocity. As a reminder, the kcat is the number of substrate molecules converted per active site and unit of time at saturation. The term kcat/Km denotes the turnover number divided by the Michaelis constant. As to B1, the Michaelis constant (Km) was determined as 27 ± 1 µM, the turnover number (kcat) was 0.095 ± 0.00333 s⁻¹ and the kcat/Km turned out to be 3500 ± 167 M⁻¹ s⁻¹.

B2: the Km was determined as 49 ± 7 µM, the kcat turned out to be 0.183 ± 0.0167 s⁻¹ and the specificity constant (kcat/Km) amounted to 3670 ± 167 M⁻¹ s⁻¹.

With B3, the Km came to 41 ± 4 µM, the catalytic constant (kcat) is 0.0117 ± 0.00333 s⁻¹ and the catalytic efficiency (kcat/Km) turned out to be 300 ± 167 M⁻¹ s⁻¹.

B4: the Michaelis-Menten constant (Km) is 1.1 ± 0.2 µM, the kcat worked out at 0.317 ± 0.0167 s⁻¹ and the kcat/Km was 317000 ± 50000 M⁻¹ s⁻¹.

Take B5: the Michaelis-Menten constant (Km) was 39 ± 1 µM, the kcat stood at 0.317 ± 0.0167 s⁻¹ and the kcat/Km stood at 8170 ± 500 M⁻¹ s⁻¹.

For the protein B6, the Km came out at 8.5 ± 1.2 µM, the kcat came to 0.0233 ± 0.00167 s⁻¹ and the kcat/Km stood at 2670 ± 333 M⁻¹ s⁻¹.

Turning to B7, the Km is 8.4 ± 1.2 µM, the turnover number (kcat) was determined as 0.417 ± 0.0333 s⁻¹ and the kcat/Km turned out to be 50000 ± 5000 M⁻¹ s⁻¹.

Substrate in a further data set: O=C(O)CCC(=O)C(=O)O
In words: purified protein. The format is biochemical, Bacillus subtilis. Particulars: 50 mM Tris-HCl pH 7.8, 20 mM NaCl, 5 mM MgSO4, 23 °C, co-substrate isochorismate.
Consider B1, for which the Michaelis-Menten constant (Km) was found to be 346 ± 10 µM.

In the case of B8, the Michaelis-Menten constant (Km) was 274 ± 12 µM, the kcat worked out at 0.0183 ± 0.00167 s⁻¹ and the kcat/Km was 65 ± 3.33 M⁻¹ s⁻¹.

As to B9, the Michaelis-Menten constant (Km) came out at 514 ± 54 µM, the kcat came to 0.0567 ± 0.00333 s⁻¹ and the kcat/Km was 117 ± 16.7 M⁻¹ s⁻¹.

As for B4, the Km turned out to be 22 ± 5 µM, the turnover number (kcat) stood at 0.233 ± 0.0333 s⁻¹ and the kcat/Km stood at 10700 ± 5000 M⁻¹ s⁻¹.

For the protein B6, the Km is 159 ± 18 µM.
